Results from patent publication US20180085455A1 (ISU ABXIS, published 2018).

B1: 442P (antibody, V domains shown)
VH: EVQLLESGGGLVQPGGSLRLSCAASGFTFSDYDMSWVRQAPGKGLEWVSSIYPDSGSTYYADSVQGRFTISRDNSKNTLYLQMNSLRAEDTAVYYCAKDLHMGPEGPFDYWGQGTLVTVSS
VL: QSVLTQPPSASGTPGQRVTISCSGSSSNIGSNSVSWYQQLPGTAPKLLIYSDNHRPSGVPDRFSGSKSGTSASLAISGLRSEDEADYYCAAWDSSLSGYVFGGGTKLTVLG
notes: IgG1 (Selexis 085 vector, CHO)
B2: 442S1 (antibody, V domains shown)
VH: EVQLLESGGGLVQPGGSLRLSCAASGFTFSDYDMSWVRQAPGKGLEWVSTIDLDSGSIYYADSVQGRFTISRDNSKNTLYLQMNSLRAEDTAVYYCAKDLHMGPEGPFDYWGQGTLVTVSS
VL: QSVLTQPPSASGTPGQRVTISCSGSSSNIGSNSVSWYQQLPGTAPKLLIYSDNHRPSGVPDRFSGSKSGTSASLAISGLRSEDEADYYCQGWDTSLSGHVFGGGTKLTVLG
notes: as for B1
B3: 442S5 (antibody, V domains shown)
VH: EVQLLESGGGLVQPGGSLRLSCAASGFTFSDYDMSWVRQAPGKGLEWVSIIEPDSGSIYYADSVQGRFTISRDNSKNTLYLQMNSLRAEDTAVYYCAKDLHMGPEGPFDYWGQGTLVTVSS
VL: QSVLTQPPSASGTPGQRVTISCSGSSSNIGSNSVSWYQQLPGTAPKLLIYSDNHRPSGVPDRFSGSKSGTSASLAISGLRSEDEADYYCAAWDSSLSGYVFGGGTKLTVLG
notes: as for B1
B4: 442M6 (antibody, V domains shown)
VH: EVQLLESGGGLVQPGGSLRLSCAASGFTFSDYDMSWVRQAPGKGLEWVSSIEPDSGSTDYADSVQGRFTISRDNSKNTLYLQMNSLRAEDTAVYYCAKDRHMWPEGPFDYWGQGTLVTVSS
VL: QSVLTQPPSASGTPGQRVTISCSGSSSNIGSNSGSWYQQLPGTAPKLLIYADNWRPSGVPDRFSGSKSGTSASLAISGLRSEDEADYYCAAWDSSLSGYVFGGGTKLTVLG
notes: as for B1
B5: 472P (antibody, V domains shown)
VH: EVQLLESGGGLVQPGGSLRLSCAASGFTFSDYDMSWVRQAPGKGLEWVSGISYDGGNTYYADSVKGRFTISRDNSKNTLYLQMNSLRAEDTAVYYCARDPSWCLQDLCYYADGMDVWGQGTLVTVSS
VL: QSVLTQPPSASGTPGQRVTISCSGSSSNIGSNSVSWYQQLPGTAPKLLIYADSNRPSGVPDRFSGSKSGTSASLAISGLRSEDEADYYCGSWDYSLSGYVFGGGTKLTVLG
notes: IgG1 (Selexis 085 vector, CHO); also called anti-ErbB3 lead antibody 472P
B6: 451M7 (antibody, V domains shown)
VH: EVQLLESGGGLVQPGGSLRLSCAASGFTFSYYDMSWVRQAPGKGLEWVSAIYYDSGSIYYADSAKGRFTISRDNSKNTLYLQMNSLRAEDTAVYYCAKDRLFESDSTFDYWGQGTLVTVSS
VL: QSVLTQPPSASGTPGQRVTISCSGSPSNIGNNSVTWYQQLPGTAPKLLIYYDSHRPSGVPDRFSGSKSGTSASLAISGLRSEDEADYYCGSWDASLNGYVFGGGTKLTVLG
notes: as for B1
B7: 451M6 (antibody, V domains shown)
VH: EVQLLESGGGLVQPGGSLRLSCAASGFTFSHYDMSWVRQAPGKGLEWVSAIYYDSGSIYYADSAKGRFTISRDNSKNTLYLQMNSLRAEDTAVYYCAKDRLFESDSTFDYWGQGTLVTVSS
VL: QSVLTQPPSASGTPGQRVTISCSGSPSNIGNNSVTWYQQLPGTAPKLLIYYDSHRPSGVPDRFSGSKSGTSASLAISGLRSEDEADYYCGSWDASLNGYVFGGGTKLTVLG
notes: as for B1
B8: 472S2 (antibody, V domains shown)
VH: EVQLLESGGGLVQPGGSLRLSCAASGFTFSWYDLAWVRQAPGKGLEWVSGISYDGGNTYYADSVKGRFTISRDNSKNTLYLQMNSLRAEDTAVYYCARDPSWCLQDLCYYADGMDVWGQGTLVTVSS
VL: QSVLTQPPSASGTPGQRVTISCSGSSSNIGSNSVSWYQQLPGTAPKLLIYADSNRPSGVPDRFSGSKSGTSASLAISGLRSEDEADYYCGSWDYSLSGYVFGGGTKLTVLG
notes: as for B1
B9: 451M5 (antibody, V domains shown)
VH: EVQLLESGGGLVQPGGSLRLSCAASGFTFSDYDMSWVRQAPGKGLEWVSAIYYDSGSIYYADSAKGRFTISRDNSKNTLYLQMNSLRAEDTAVYYCAKDRLFESDSTFDYWGQGTLVTVSS
VL: QSVLTQPPSASGTPGQRVTISCSGSPSNIGNNSVTWYQQLPGTAPKLLIYYDSHRPSGVPDRFSGSKSGTSASLAISGLRSEDEADYYCGSWDASLNGYVFGGGTKLTVLG
notes: as for B1
B10: 472M1 (antibody, V domains shown)
VH: EVQLLESGGGLVQPGGSLRLSCAASGFTFSWYDLSWVRQAPGKGLEWVSGISYDGGNTYYADSVKGRFTISRDNSKNTLYLQMNSLRAEDTAVYYCARDPSWCLQDLCYYADGMDVWGQGTLVTVSS
VL: QSVLTQPPSASGTPGQRVTISCSGSSSNIGSNSVSWYQQLPGTAPKLLIYADSNRPSGVPDRFSGSKSGTSASLAISGLRSEDEADYYCGSWDYSLSGYVFGGGTKLTVLG
notes: as for B1

Columns and labels:
ErbB3 on cancer cells = ErbB3 on cancer cells (UniProt P21860 20-1342, limits assumed); experiment: cell-based or functional assay
[1] = biological target: T1, recombinant human ErbB3 protein (R&D systems) (human, UniProt P21860 20-643); experiment: BLI (Octet QK384), human ErbB3 immobilized on AR2G sensor, IgG at 12.5-50 nM
T1 construct: Bought recombinant protein; also called HER3
Description: After activation of carboxyl groups in 20 mM of 1-ethyl-3-(3-dimethylaminopropyl)carbodiimide hydrochloride (EDC) and 40 mM of N-hydroxysulfosuccinimide (sulfo-NHS) solution on an AR2G sensor (ForteBio), 10 μg/mL of human ErbB3 protein solution diluted with 10 mM of sodium acetate (pH 4.0) (ForteBio) was added to immobilize human ErbB3 protein onto the AR2G sensor. The AR2G sensor to which the human ErbB3 protein was immobilized and was treated with 1 M of ethanolamine (ForteBio) to inactivate the remaining unreacted carboxyl groups.

Binder	Inhibition of ErbB3 phosphorylation, IC50 (HRG-stimulated MCF7 cells) (ErbB3 on cancer cells) [nM]	Kd [1] [nM]	koff [1] [s⁻¹]	kon [1] [M⁻¹ s⁻¹]	Inhibition of Akt phosphorylation, IC50 (HRG-stimulated MCF7 cells) (ErbB3 on cancer cells) [nM]
B1	1.05	0.283	0.000352	1.25e+06	–
B2	0.222	< 0.001	3.94e-07	522000	0.239
B3	0.0854	0.0175	2.74e-05	1.57e+06	0.167
B4	0.271	0.0201	1.95e-05	969000	0.304
B5	1.45	0.284	0.000508	1.79e+06	–
B6	–	0.00492	6.63e-06	1.35e+06	–
B7	–	0.00347	4.17e-06	1.2e+06	–
B8	0.148	< 0.001	< 1e-07	1.07e+06	0.195
B9	–	0.0217	3.29e-05	1.52e+06	–
B10	0.276	0.0125	1.74e-05	1.39e+06	0.246
